Experimental data taken from the DeepSol protein solubility set.

experiment: soluble on expression in E. coli; label from the status in PepcDB or PDB records

Row | Sequence | soluble on expression in E. coli
1 | MGSDKIHHHHHHMPEKKIDGRRKAAVLLVALGPEKAAQVMKHLDEETVEQLVVEIANIGRVTPEEKKQVLEEFLSLAKAKEMISEGGIEYAKKVLEKAFGPERARKIIERLTSSLQVKPFSFVRDTDPVQLVNFLQSEHPQTIAVVLSYLDPPVAAQILGALPEELQTEVLKRIALLERTSPEVVKEIERNLEKKISGFVSRTFSKVGGIDTAAEIMNNLDRTTEKKIMDKLVQENPELADEIRRRMFVFEDILKLDDRSIQLVLREVDTRDLALALKGASDELKEKIFKNMSKRAAALLKDELEYMGPVRLKDVEEAQQKIINIIRRLEEAGEIVIARGGGEELIM | not soluble
2 | GIDIDLQMLGERLLKNKIGSIVAIEPETGEILCMVSSPDFDPRLMIGRQRGKNHLMLQRDPMKPLLNRSIMGVYPPGSTFKTAQALTFLQEGIIQTNTPAFPCAHGFNYGSLHVGCHAHGSPLPLIPAIATSCNSYFCWGLFRMFGDRKYGSSQNAITVWKDHMVSQGFGYKLGVDLPGEKRGLIPNAQFYDKAYRGRWNGLTVISIAIGQGEILATPLQIANLGATIANRGHFITPHIVKEIQDEQLDSLYRVPRKTSIDRKHYEDVVTGMRAAVTGGTCRVAGAILPDVEVCGKTGTAQNRGHDHSVFMGFAPMNNPKIAIAVYVENGGFGAVYGVPIGALMMEQYLKGKLSPEN | not soluble
3 | MEDKNSVIVFKNVSFQYQSDASFTLKDVSFNIPKGQWTSIVGHNGSGKSTIAKLMIGIEKVKSGEIFYNNQAITDDNFEKLRKDIGIVFQNPDNQFVGSIVKYDVAFGLENHAVPYDEMHRRVSEALKQVDMLERADYEPNALSGGQKQRVAIASVLALNPSVIILDEATSMLDPDARQNLLDLVRKVKSEHNITIISITHDLSEAMEADHVIVMNKGTVYKEGTATEIFDNAEELTRIGLDLPFPIKINQMLGHQTSFLTYEGLVDQL | not soluble
4 | MTSLQRKGPQTRILSTGEEEKLKRDQALVSAFKQQKLEKEAQKNWDLFYKRNSTNFFKDRHWTTREFEELRSCREYEGQKLTLLEAGCGVGNCLFPLLEEDSNIFAYACDFSPRAVDYVKQHPLYNAERCKVFQCDLTRDDLLDHIPPESVDAVTLIFVLSAVHPEKMHLVLLNVYKVLKPGRSVLFRDYGLNDHAMLRFKAGSKLGENFYVRQDGTRSYFFTDEFLAKLFVDAGYEEVVNEYVFRETVNKKEGLCVPRVFLQSKFRKPPKDPAPTTDSASLLRKEF | not soluble
5 | MGSDKIHHHHHHMQMFCYQCSQTANGTGCTEYGVCGKSPTVARLQDNLVFAIKGISAYYYHARELGYDDPEIAGFLDEALYSTLTNVNFDAQSFVEYALEAGRMNLKAMQLLKKAHIETYGEPTPVEVETGTKKGKGIIVTGHNLKALEELLKQVEGTNVYVYTHSEMLPAHGYPGLRKYKNLIGNLGKAWYDQRKLFAEYPVAILGTSNCVLIPSESYRDRMFTTSIARLPGVKHIDGYDYTEVIEKAKSLPDLEEKPGSYKLRTGFSTSVVVSLADKIKELVEAGKIKHFLVVGGCDVPFKRNEYYREFVQKLPKETVVITLACGKFRINDLDLGDIDGIPRLIDVGQCNDTIVAIEIAQALAKVFGVEVTELPLTLVLTWMEQKAVAILWTLLALGLKNIYVGPVLPAWVNEDILKVLTAEFGLKTISEP | not soluble
6 | MSLTLRQAIDLAAALLAEAGVDSARCDAEQLAAHLAGTDRGRLPLFEPPGDEFFGRYRDIVTARARRVPLQHLIGTVSFGPVVLHVGPGVFVPRPETEAILAWATAQSLPARPLIVDACTGSGALAVALAQHRANLGLKARIIGIDDSDCALDYARRNAAGTPVELVRADVTTPRLLPELDGQVDLMVSNPPYIPDAAVLEPEVAQHDPHHALFGGPDGMTVISAVVGLAGRWLRPGGLFAVEHDDTTSSSTVDLVSSTKLFVDVQARKDLAGRPRFVTAMRWGHLPLAGENGAIDPRQRRCRAKREGHHHHHH | soluble
7 | GPGSMQKSKRHGMHMDFNPLEHCNAPMDSVVGYSSDVPSMSNCHRHWLSETYAYTTIGYPHEVMKKMPYGSEWKRAPTGLCWTADEFVARYLLHTRGIFVYFGGSRHDLYWENLKFFGSSGMHRLYERINFENKVEVTTTKRRKRHTPLVGDVVVWDSDYKAYFPRGHVAVVVKVEDDVSAAGGEAALRELKKERRQPSLVYIAEQNFDNKNWEGRNFSRVLKFTWMRGDRASLEDPDGPPLMGHVRVGKLLEDASFFGDL | not soluble
8 | GMNQNKITAGGLEFLVRFAAPTDRLKINDLMIDTARWLKESGSTQWSDILHGFDVHNIEQRIELGEVALFETEAGALAGAMIIRKTPSDWDTDLWEDLAIDKAYYLHRIMVSRAFSGISLSKQMIYFAEKLGIEMSVPFIRLDCIESNETLNQMYVRYGFQFSGKKNGFYLYQKELSQK | soluble
9 | QIVLTQSPAIMSASLGDRVTMTCTASSSVSSSYLHWYQQKPGSSPKLWIYSTSNLASGVPARFSGSGSGTSYSLTISSMEAEDAATYYCHQFHRSLTFGSGTKLE | soluble
10 | MADSELQSAIGNNEECVNLFSDCDNVFVVAGISPLIDFQNNLNRIENYLCQKKIVGVKLYPGHEQFYLNDPRLESVFLLCEAFDVPVAVHTGWDNPHFNAPALFADIAGKHPKLKIVNCHLWYPKIDYCYEVTRDYQNIYYDISSLADDKGNKSKITEVLHRIANENPHRLIFGSDYGMCDPMAHIELVDRLPVSDETREMIFYKNAVGLYGLSRING | soluble
11 | MLENRLYKRSDFWKLFSRKYKLTKTIEHMMIDSIDIQENDRILEIGIGNGTVFKSITKKLKKGSLKSIDPSKRKVRQISRANRKNMGNGEVFHGYPEDIPFDDRTFNKVFSLHTVQSCTDIRLALREIYRVLQIDGRFYISIDTNTGEKEKTYIQLLKDQHFRDLSVIRRASCLCIVAVKLEHHHHHH | soluble
12 | MASTTQNTPTKDLAEISERFEKLRARSSNNMATFNTTSSYNRTYEKKVIEEGSPNVRVTTQTHTAIPGMPDLGNIHSSMLSNFPNLAISSPSVVGSQNGNLTSIRVTNTSFHAILDVSKYDADSLKVTVVDNNIIVEGSHGEKEDTYGTIESTFKRRFPLPKAVAPESVQSQLTADGHLTIDAKAPEPKQEGARPIQIKVINTSAEQQKQ | not soluble
13 | MRVCLLASGSKGNSLFIETGESRILIDAGLSARELVRRLSLIGVDAAQLDALFISHEHTDHVRGAGVLARKYRIPVHVSYPTHREISGQIHGVYVTEFESGYSFTFRDLLVDPFRITHDACDPVGFTVESREGKVGIATDLGTATRLVADKLAGCRALVVESNHDEGMLMDGPYPWHLKQRIKSRHGHLSNNDTAALLAEVINPGLEGLFLAHLSEVNNDPVMARQVTASFLAGQNICSPRLVVGDQYRPSELLNILEHHHHHH | not soluble
14 | MAHHHHHHMLCHNVASKVSELLLNRMNCPFLQNVQVRNHKIIKPRNIIKLWKINKGDEVKVISGKDKGKIGEVLSCDKFRNMVKVKGCNLRKIYLDNKFVYIEKKIHYSNVQLIDDFLKTNTKVCIRYTDDNQVIRISKKSGIVIPWPSKTNKEDEFDDVEENPLDTPPQEALKKTYDYKADVKFMNILRQTVNKYNRELS | not soluble
15 | MISIDPQFIKNFSKKVKQFDKFSLFVHVNPDFDAFGSAFAFKTFLNTFFSEKKAYVMGSYNINADGRELFPFEQTDINDDFVKESLAIIFDTSNQERVLTQKHKLAKETVRIDHHPRTEKFADMEWIDSSFSATAEMIGYLILQMGYKLNDEIASYLYAGIITDTQRFWGPTTTPQTFALTAKLMETGFNRNKVHDAVYLKPLLEHKYFSYVLSKAKITKNGLAYALIKKGAYKHFGVVSPLPMVHALNNIKGVKIWTTVYFNESIKKWIGSIRSRNIPINNFAQMFNGGGHKYAAAFVLDEKNQFMKLVQIMDDFLAKQNENS | not soluble
16 | MEPVRIGGPVGAGKTMLVEKLTRAMHRRFSIAVITNDIYTKEDAQFLIKHSVLPEDRIIGVETGGCPHTAIREDASMNFAAIDELKRRHPDVELILIESGGDNLAATFSPELVDFSIYVIDVAQGEKIPRKGGQGMIKSDLLVINKIDLAPYVGASLEVMERDAKAVRGAKPVIFTNLKEEIGLFDVVDWIEKQVLLAGLEE | not soluble
